Measurements taken from patent publication US20200199216A1 (KINDRED BIOSCIENCES, published 2020).
Where a chain is given by its changes, count along the chain named.

How the values were obtained:
[1] = biological target: T1, canine IL17A-hFc-polyHis Mutant 1 (R71L, L73W, I82T) (canine); test: Western blot of 3-fold concentrated 293 supernatants, 25 µL per lane, SDS-PAGE with or without DTT, PVDF, probed with Clone C
T1 construct: Tested as 3-fold concentrated supernatant of transfected 293 cells; not shown: human Fc; poly-His tag
T1 chain: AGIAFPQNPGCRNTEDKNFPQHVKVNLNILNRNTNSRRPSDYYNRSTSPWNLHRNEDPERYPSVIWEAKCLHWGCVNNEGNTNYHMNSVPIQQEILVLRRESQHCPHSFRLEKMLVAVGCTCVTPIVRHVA
Method: (§1) Plasmid constructs containing nucleotide sequences encoding each of the canine IL17A-hFC-polyHis mutants were transiently transfected into 293 cells and the supernatants concentrated 3-fold. Each mutant was separated by SDS-PAGE (25 μL per lane) in the presence or absence of DTT and the proteins transferred to a PVDF membrane. The blot was probed using either Clone C antibody or anti-human IgG Fc (control).

[2] = biological target: T2, canine IL17A-hFc-polyHis Mutant 3 (Q103R); test: as above
T2 IL17A-hFc-polyHis fusion chain: T1 chain with L71R, W73L, T82I, Q103R
Method: as §1

[3] = biological target: T3, canine IL17A-hFc-polyHis Mutant 5 (C-terminal deletion of amino acids 126-131); test: as above
T3 IL17A-hFc-polyHis fusion chain: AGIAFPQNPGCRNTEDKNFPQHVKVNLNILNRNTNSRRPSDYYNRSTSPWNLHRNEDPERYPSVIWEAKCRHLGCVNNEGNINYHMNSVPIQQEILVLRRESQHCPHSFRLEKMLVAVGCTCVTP
Method: as §1

canine IL17A-huFc [4] = biological target: T4, canine IL17A-huFc (canine); test: ELISA; canine IL17A-huFc captured on anti-human Fc, detection goat anti-mouse Fc-HRP
T4 construct: also called canine IL17A-hFc; not shown: human Fc on the C-terminal
T4 chain: T1 chain with L71R, W73L, T82I
Method: Binding affinity of monoclonal antibodies A, B, C, D, and E to canine IL17A-huFc polypeptide was analyzed by ELISA. In the binding ELISA performed, the wells were coated with anti-human Fc antibody. Canine IL17A-huFc protein was then added to the wells. Antibody purified from each of the five hybridoma clones was added to the wells at various concentrations (19.35 nM, 6.45 nM, 2.15 nM, 0.75 nM, 0.24 nM, 0.08 nM, 0.03 nM, and 0 nM). Goat anti-mouse Fc-HRP was added and color was developed. […] Table 3 below provides the EC50 values associated with the binding ELISA for each of the clones.

canine IL17A-polyHis = biological target: T5, canine IL17A-polyHis (canine, biotinylated (EZ-Link NHS-LC-biotin) in the biosensor assays); test: BLI (Octet); biotinylated canine IL17A-polyHis on streptavidin sensors, antibody 0-220 nM, 1:1 model
T5 construct: also called biotinylated canine IL17A-polyHis; not shown: poly-His tag on the C-terminal
T5 chain: T1 chain with L71R, W73L, T82I
Method: The binding analysis was performed using a Biosensor Octet as follows. Briefly, canine IL17A-polyHis, which was expressed and purified from CHO-S cells, was biotinylated using EZ-Link NHS-LC-biotin (Catalog No. 21336, Thermo Scientific). Free, unreacted biotin was removed from biotinylated IL17A by dialysis. Biotinylated canine IL17A was captured on streptavidin sensor tips (Catalog No. 18-509, ForteBio). The association of different concentrations (0 nM, 18.33 nM, 45.87 nM, 110 nM, 220 nM) of hybridoma Clone C or caninized Clone C antibody to canine IL17A was monitored for 90 seconds. Dissociation was monitored for 600 seconds. A buffer only blank curve was subtracted to correct for any drift. The data were fit to a 1:1 binding model using ForteBio™ data analysis software to determine the kₒₙ, koff, and the Kd. The buffer for dilutions and all binding steps was: 20 mM phosphate, 150 mM NaCl, pH 7.2.

equine IL17A-polyHis = biological target: T6, equine IL17A-polyHis (equine, biotinylated in the biosensor assay); test: BLI (Octet); biotinylated equine IL17A-polyHis on streptavidin sensors, antibody 20 µg/mL; BLI (Octet), biotinylated equine IL17A-polyHis on streptavidin sensor, antibody 20 µg/mL
T6 construct: not shown: poly-His tag on the C-terminal
T6 chain: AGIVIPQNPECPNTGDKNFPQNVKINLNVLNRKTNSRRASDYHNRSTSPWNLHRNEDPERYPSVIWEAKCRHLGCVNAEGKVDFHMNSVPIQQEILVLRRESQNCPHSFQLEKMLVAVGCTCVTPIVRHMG
Method: The binding analysis was performed using a Biosensor Octet as follows. Both feline IL17A-polyHis and equine IL17A-polyHis were biotinylated and immobilized to streptavidin biosensors. The association of monoclonal antibody Clones A, C, D, and E (20 μg/mL) to either feline or […] IL17A-polyHis was monitored for 90 seconds. Dissociation was monitored for 600 seconds. A buffer only blank curve was subtracted to correct for any drift. The data were fit to a 1:1 binding model using ForteBio™ data analysis software to determine the kₒₙ, koff, and the Kd. The buffer for dilutions and all binding steps was: 20 mM phosphate, 150 mM NaCl, pH 7.2. […] Weak binding signals of Clone A to feline IL17A and Clone C to feline IL17A were observed.

[5] = biological target: T7, canine IL17A (as used at 1 nM in the H1080 cell assay) (canine); test: cell-based or functional assay
T7 chain: T1 chain with L71R, W73L, T82I

canine IL17A-huFc [6] = biological target: T4, canine IL17A-huFc; test: BLI (Octet); canine IL17A-huFc captured on anti-human Fc sensors, antibody at 10 µg/mL
Method: Briefly, antibody concentrations were measured by protein A assay using Biosensor Octet (Forte Bio). Canine IL17A-huFc was captured to anti-human Fc bound biosensors. The association of anti-IL17A antibody from clones A, C, D, and E to the canine IL17A-huFc was monitored for 90 seconds. Dissociation was monitored for 600 seconds. A buffer only blank curve was subtracted to correct for any drift. The data were fit to a 1:1 binding model using ForteBio™ data analysis software to determine the kon, koff, and the Kd. The buffer for dilutions and all binding steps was: 20 mM phosphate, 150 mM NaCl, pH 7.2.

binding result [1]: binds
binding result [2]: binds
binding result [3]: binds
EC50 (canine IL17A-huFc [4]): 0.2 ng/mL
Kd (canine IL17A-polyHis): 7.9 nM
Kd (equine IL17A-polyHis): 0.13 nM
EC50 (ng/mL), H1080 Cell Functional Assay (IL6 secretion) [5]: 7 ng/mL
Kd (canine IL17A-huFc [6]): < 10 nM
B1: mouse monoclonal antibody Clone C (antibody, mouse IgG1, V domains shown)
VH: EVQLVESGGGLVQPGGSLKLSCAASGFTFSSYGMSWVRQTPDKRLELVAIINSNGGSTYYPDSVKGRFTISRDNDKNSLYLQMSSLKSEDTAMYYCVRCHYDYERVFDYWGQGTTLTVSS
VL: DIQMTQSSSYLSVSLGGRVTITCKANDHINNWLAWYQQKPGNAPRLLISGSTSLETGVPSRFSGSGSGKDYTLSITSLQTEDVATYYCQQYWSTPFTFGSGTKLEIK
notes: Hybridoma antibody; also called hybridoma Clone C
